Test results published in US7067474B1, “Agents for treating human illnesses based on β-catenin, and the production and use thereof” (Max-Delbruck-Centrum fur Molekulare Medizin, priority 1998, dated 2006).
“Also recorded” adds a separate entry of the source.

T1: APC (20 amino acid repeats) (Homo sapiens, UniProt P25054)
T1 construct: for the amino acids Ser1259Asp 1400 (APC 20 amino acid repeats); expressed in transfected cells; host or cells: yeast (two-hybrid, Matchmaker, Clontech)
T1 sequence (P25054 1253-1394 limits assumed): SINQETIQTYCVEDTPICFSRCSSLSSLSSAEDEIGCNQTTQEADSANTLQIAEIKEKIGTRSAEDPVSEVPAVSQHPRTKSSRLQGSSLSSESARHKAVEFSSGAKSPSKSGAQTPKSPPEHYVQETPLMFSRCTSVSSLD

T2: APC (15 amino acid repeats) (Homo sapiens, UniProt P25054)
T2 construct: of human APC for the amino acids His1012–Glu1215 (APC 15 amino acid repeats); expressed in transfected cells; host or cells: yeast (two-hybrid, Matchmaker, Clontech)
T2 sequence (P25054 1006-1209 limits assumed): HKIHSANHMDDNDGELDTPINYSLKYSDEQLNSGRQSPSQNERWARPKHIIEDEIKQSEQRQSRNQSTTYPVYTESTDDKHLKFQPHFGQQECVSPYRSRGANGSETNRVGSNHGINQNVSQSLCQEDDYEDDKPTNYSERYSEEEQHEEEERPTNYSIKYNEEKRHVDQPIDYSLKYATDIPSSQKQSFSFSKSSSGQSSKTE


Key:
Assay type in all cases: binding
[1] = target: T1, APC (20 amino acid repeats); experiment: yeast 2-hybrid: interaction of β-catenin mutants with APC 20 amino acid repeats; conditions: for Interaction With APC-20, share of wild type β-catenin interaction: yeast 2-hybrid, alanine mutants
Description: (§1) The mutagenesis of β-catenin in the armadillo repeats 3–8 was carried out by means of the “mutagenesis kit” of the company Clontech according to the producer's record and the mutants were checked by sequencing (FIG. 5). In all mutants the original amino acid was substituted by alanine. For analyzing the interactions the cDNA of human β-catenin (armadillo repeat 3 up to the C-terminal end of the protein) coding for the amino acids Leu218–Leu7 μl or its mutants was cloned into the fusion vector for the activation domain of Gal-4 (pGAD424, Clontech). The cDNA for the binding domains of the interaction partners was cloned into the Lex-A fusion vector BTM 116. To this end, the cDNA of LEF-1 for the amino acids 1–99, conductin for the amino acids Ala342–ARG465; of human APC for the amino acids His1012–Glu1215 (APC 15 amino acid repeats) and for the amino acids Ser1259Asp 1400 (APC 20 amino acid repeats) and E-cadherin for the amino acids Gin773–Asp884 (cytoplasmatic domain) were amplified with the respective primers PCR. The interaction of the Lex-A hybrids with β-catenin and its mutants was quantified by means of the β-galactosidase reporter activity in the yeast 2-hybrid system (report: “Matchmaker”. Clontech) (Tab. 2 and FIG. 6).

LEF-1 = target: T3, LEF-1 (Mus musculus, UniProt P27782); experiment: yeast 2-hybrid: interaction of β-catenin mutants with LEF-1; conditions: for Interaction With LEF-1, share of wild type β-catenin interaction: yeast 2-hybrid, alanine mutants
T3 construct: the cDNA of LEF-1 for the amino acids 1–99; expressed in transfected cells; host or cells: yeast (two-hybrid, Matchmaker, Clontech)
Description: as §1

[2] = target: T2, APC (15 amino acid repeats); experiment: yeast 2-hybrid: interaction of β-catenin mutants with APC 15 amino acid repeats; conditions: yeast 2-hybrid, alanine mutants
Description: as §1

conductin = target: T4, conductin (Mus musculus, UniProt O88566); experiment: yeast 2-hybrid: interaction of β-catenin mutants with conductin; conditions: for Interaction With Conductin, share of wild type β-catenin interaction: yeast 2-hybrid, alanine mutants; for interaction with conductin: β-catenin mutation, in words
T4 construct: conductin for the amino acids Ala342–ARG465; expressed in transfected cells; host or cells: yeast (two-hybrid, Matchmaker, Clontech)
Description: as §1

E-cadherin = target: T5, E-cadherin (Mus musculus, UniProt P09803); experiment: yeast 2-hybrid: interaction of β-catenin mutants with E-cadherin; conditions: alanine mutants
T5 construct: E-cadherin for the amino acids Gin773–Asp884 (cytoplasmatic domain); expressed in transfected cells; host or cells: yeast (two-hybrid, Matchmaker, Clontech)
Description: as §1

T3 sequence (P27782 1-99): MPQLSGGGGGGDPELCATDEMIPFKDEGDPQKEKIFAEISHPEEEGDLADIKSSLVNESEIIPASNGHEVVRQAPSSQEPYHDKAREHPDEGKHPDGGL
T4 sequence (O88566 343-465 limits assumed): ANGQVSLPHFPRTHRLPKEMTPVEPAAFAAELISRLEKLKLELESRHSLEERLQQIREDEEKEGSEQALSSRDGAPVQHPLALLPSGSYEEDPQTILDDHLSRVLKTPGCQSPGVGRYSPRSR
T5 sequence (P09803 773-884): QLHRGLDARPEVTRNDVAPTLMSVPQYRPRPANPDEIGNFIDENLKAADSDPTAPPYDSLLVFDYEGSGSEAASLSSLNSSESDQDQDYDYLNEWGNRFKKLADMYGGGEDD

Row | Molecule | Interaction With APC-20, share of wild type β-catenin interaction [1] | interaction with LEF-1/TCF-4 (LEF-1; β-catenin mutation, in words) | Interaction With APC-15, share of wild type β-catenin interaction [2] | Interaction With Conductin, share of wild type β-catenin interaction (conductin) | Interaction With E-Cadherin, share of wild type β-catenin interaction (E-cadherin) | interaction with APC 20aa ([1]; β-catenin mutation, in words) | Interaction With LEF-1, share of wild type β-catenin interaction (LEF-1) | interaction with conductin (conductin)
1 | His 470: human β-catenin mutant, His 470 substituted by alanine (arm 8) (protein, left off: large carriers; small tags and cut ends) LHNLSHHREGLLAIFKSGGIPALVKMLGSPVDSVLFYAITTLHNLLLHQEGAKMAVRLAGGLQKMVALLNKTNVKFLAITTDCLQILAYGNQESKLIILASGGPQALVNIMRTYTYEKLLWTTSRVLKVLSVCSSNKPAIVEAGGMQALGLHLTDPSQRLVQNCLWTLRNLSDAATKQEGMEGLLGTLVQLLGSDDINVVTCAAGILSNLTCNNYKNKMMVCQVGGIEALVRTVLRAGDREDITEPAICALRALTSRHQEAEMAQNAVRLHYGLPVVVKLLHPPSHWPLIKATVGLIRNLALCPANHAPLREQGAIPRLVQLLVRAHQDTQRRTSMGGTQQQFVEGVRMEEIVEGCTGALHILARDVHNRIVIRGLNTIPLFVQLLYSPIENIQRVAAGVLCELAQDKEAAEAIEAEGATAPLTELLHSRNEGVATYAAAVLFRMSEDKPQDYKKRLSVELTSSLFRTEPMAWNETADLGLDIGAQGEPLGYRQDDPSYRSFHSGGYGQDALGMDPMMEHEMGGHHPGADYPVDGLPDLGHAQDLMDGLPPGDSNQLAWFDTDL | 47% | blocking the interaction; also recorded: no interaction with LEF-1/TCF-4 | 60% | — (Interactions marked by — correspond to 60–100% of the wild type interaction) | — (Interactions marked by — correspond to 60–100% of the wild type interaction) |  |  | 
2 | Trp 383: human β-catenin mutant, Trp 383 substituted by alanine (arm 6) (protein, left off: large carriers; small tags and cut ends) LHNLSHHREGLLAIFKSGGIPALVKMLGSPVDSVLFYAITTLHNLLLHQEGAKMAVRLAGGLQKMVALLNKTNVKFLAITTDCLQILAYGNQESKLIILASGGPQALVNIMRTYTYEKLLWTTSRVLKVLSVCSSNKPAIVEAGGMQALGLHLTDPSQRLVQNCLATLRNLSDAATKQEGMEGLLGTLVQLLGSDDINVVTCAAGILSNLTCNNYKNKMMVCQVGGIEALVRTVLRAGDREDITEPAICALRHLTSRHQEAEMAQNAVRLHYGLPVVVKLLHPPSHWPLIKATVGLIRNLALCPANHAPLREQGAIPRLVQLLVRAHQDTQRRTSMGGTQQQFVEGVRMEEIVEGCTGALHILARDVHNRIVIRGLNTIPLFVQLLYSPIENIQRVAAGVLCELAQDKEAAEAIEAEGATAPLTELLHSRNEGVATYAAAVLFRMSEDKPQDYKKRLSVELTSSLFRTEPMAWNETADLGLDIGAQGEPLGYRQDDPSYRSFHSGGYGQDALGMDPMMEHEMGGHHPGADYPVDGLPDLGHAQDLMDGLPPGDSNQLAWFDTDL | 0% |  | 59% | — (Interactions marked by — correspond to 60–100% of the wild type interaction) | — (Interactions marked by — correspond to 60–100% of the wild type interaction) | no interaction with APC 20aa | — (Interactions marked by — correspond to 60–100% of the wild type interaction) | 
3 | Phe 253: human β-catenin mutant, Phe 253 substituted by alanine (arm 3) (protein, left off: large carriers; small tags and cut ends) LHNLSHHREGLLAIFKSGGIPALVKMLGSPVDSVLAYAITTLHNLLLHQEGAKMAVRLAGGLQKMVALLNKTNVKFLAITTDCLQILAYGNQESKLIILASGGPQALVNIMRTYTYEKLLWTTSRVLKVLSVCSSNKPAIVEAGGMQALGLHLTDPSQRLVQNCLWTLRNLSDAATKQEGMEGLLGTLVQLLGSDDINVVTCAAGILSNLTCNNYKNKMMVCQVGGIEALVRTVLRAGDREDITEPAICALRHLTSRHQEAEMAQNAVRLHYGLPVVVKLLHPPSHWPLIKATVGLIRNLALCPANHAPLREQGAIPRLVQLLVRAHQDTQRRTSMGGTQQQFVEGVRMEEIVEGCTGALHILARDVHNRIVIRGLNTIPLFVQLLYSPIENIQRVAAGVLCELAQDKEAAEAIEAEGATAPLTELLHSRNEGVATYAAAVLFRMSEDKPQDYKKRLSVELTSSLFRTEPMAWNETADLGLDIGAQGEPLGYRQDDPSYRSFHSGGYGQDALGMDPMMEHEMGGHHPGADYPVDGLPDLGHAQDLMDGLPPGDSNQLAWFDTDL | 40% |  | — (Interactions marked by — correspond to 60–100% of the wild type interaction) | 17% | — (Interactions marked by — correspond to 60–100% of the wild type interaction) |  | — (Interactions marked by — correspond to 60–100% of the wild type interaction) | no interaction with conductin
4 | Trp 338: human β-catenin mutant, Trp 338 substituted by alanine (arm 5) (protein, left off: large carriers; small tags and cut ends) LHNLSHHREGLLAIFKSGGIPALVKMLGSPVDSVLFYAITTLHNLLLHQEGAKMAVRLAGGLQKMVALLNKTNVKFLAITTDCLQILAYGNQESKLIILASGGPQALVNIMRTYTYEKLLATTSRVLKVLSVCSSNKPAIVEAGGMQALGLHLTDPSQRLVQNCLWTLRNLSDAATKQEGMEGLLGTLVQLLGSDDINVVTCAAGILSNLTCNNYKNKMMVCQVGGIEALVRTVLRAGDREDITEPAICALRHLTSRHQEAEMAQNAVRLHYGLPVVVKLLHPPSHWPLIKATVGLIRNLALCPANHAPLREQGAIPRLVQLLVRAHQDTQRRTSMGGTQQQFVEGVRMEEIVEGCTGALHILARDVHNRIVIRGLNTIPLFVQLLYSPIENIQRVAAGVLCELAQDKEAAEAIEAEGATAPLTELLHSRNEGVATYAAAVLFRMSEDKPQDYKKRLSVELTSSLFRTEPMAWNETADLGLDIGAQGEPLGYRQDDPSYRSFHSGGYGQDALGMDPMMEHEMGGHHPGADYPVDGLPDLGHAQDLMDGLPPGDSNQLAWFDTDL | 55% |  | — (Interactions marked by — correspond to 60–100% of the wild type interaction) | 20% | — (Interactions marked by — correspond to 60–100% of the wild type interaction) |  | — (Interactions marked by — correspond to 60–100% of the wild type interaction) | no interaction with conductin
5 | Lys 292: human β-catenin mutant, Lys 292 substituted by alanine (arm 4) (protein, left off: large carriers; small tags and cut ends) LHNLSHHREGLLAIFKSGGIPALVKMLGSPVDSVLFYAITTLHNLLLHQEGAKMAVRLAGGLQKMVALLNKTNVAFLAITTDCLQILAYGNQESKLIILASGGPQALVNIMRTYTYEKLLWTTSRVLKVLSVCSSNKPAIVEAGGMQALGLHLTDPSQRLVQNCLWTLRNLSDAATKQEGMEGLLGTLVQLLGSDDINVVTCAAGILSNLTCNNYKNKMMVCQVGGIEALVRTVLRAGDREDITEPAICALRHLTSRHQEAEMAQNAVRLHYGLPVVVKLLHPPSHWPLIKATVGLIRNLALCPANHAPLREQGAIPRLVQLLVRAHQDTQRRTSMGGTQQQFVEGVRMEEIVEGCTGALHILARDVHNRIVIRGLNTIPLFVQLLYSPIENIQRVAAGVLCELAQDKEAAEAIEAEGATAPLTELLHSRNEGVATYAAAVLFRMSEDKPQDYKKRLSVELTSSLFRTEPMAWNETADLGLDIGAQGEPLGYRQDDPSYRSFHSGGYGQDALGMDPMMEHEMGGHHPGADYPVDGLPDLGHAQDLMDGLPPGDSNQLAWFDTDL | 28% |  | — (Interactions marked by — correspond to 60–100% of the wild type interaction) | 5% | — (Interactions marked by — correspond to 60–100% of the wild type interaction) |  | — (Interactions marked by — correspond to 60–100% of the wild type interaction) | 
